The chains are these.
T1: Human IL-11 (human, UniProt P20809 22-199)
T1 construct: Recombinant human IL-11 (GenScript Cat. No. Z03108-1) or IL-11 secreted by human cells; the mature form is said to have 178 residues; also called recombinant human IL-11; endogenously produced IL-11
T1 sequence: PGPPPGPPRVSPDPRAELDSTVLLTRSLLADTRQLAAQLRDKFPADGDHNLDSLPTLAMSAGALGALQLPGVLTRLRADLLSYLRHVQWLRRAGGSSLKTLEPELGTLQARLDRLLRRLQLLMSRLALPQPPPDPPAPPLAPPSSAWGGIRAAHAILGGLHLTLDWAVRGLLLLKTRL

T2: FLAG-tagged human IL-11 expressed at the surface of transiently transfected cells (human, UniProt P20809 22-199)
T2 construct: also called IL-11 expressing HEK cells; target cells expressing human IL-11 at their surface; not shown: FLAG tag added to the N-terminus
T2 sequence: T1 sequence

T3: Mouse IL-11 (mouse, UniProt P47873 22-199, limits assumed)
T3 construct: also called murine IL-11; recombinant murine IL-11
T3 sequence (looked up): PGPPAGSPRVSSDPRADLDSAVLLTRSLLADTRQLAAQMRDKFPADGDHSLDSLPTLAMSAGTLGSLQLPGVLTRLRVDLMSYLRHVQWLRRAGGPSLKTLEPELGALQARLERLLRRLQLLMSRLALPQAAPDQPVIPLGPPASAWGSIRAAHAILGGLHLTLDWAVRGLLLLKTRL

B1: YU100-G08 (antibody, human IgG1, V domains shown)
VH: QVQLVQSGGGVVQPGRSLRLSCAASGFTFSSYGMHWVRQAPGKGLEWVAVISYDGSNKYYADSVKGRFTISRDNSKNTLYLQMNSLRAEDTAVYYCAKIGATDPLDYWGQGTLVTVSS
VL: QSALTQPRSVSGSPGQSVTLSCTGTSSDVGGYNYVSWYQHYPGKAPKLMIFDVNERSSGVPDRFSGSKSGNTASLTISGLQAEDEADYYCCSYAGRYTWMFGGGTKVTVLG
notes: Light chain shuffled human antibody; Only the variable domains are tied to the clone
B2: YU100-H01 (antibody, human IgG1, V domains shown)
VH: QVQLVQSGGGVVQPGRSLRLSCAASGFTFSSYAMHWVRQAPGKGLEWVAVISYDGSNKYYADSVKGRFTISRDNSKNTLYLQMNSLRAEDTAVYYCARIMGYDYGDYDVVDYWGQGTLVTVSS
VL: B1 VL with L20I, G31A, H40Q, Y41H, F51Y, N54S, S57P, R96S, M100V, V107L
notes: as for B1
B3: BSN-8H11 (antibody, IgG2b, V domains shown)
VH: EVQLQQSGPELVKPGASVKIPCKASGYTFTDYNIDWVKQSHGKSLEWIGDINPNYGGTLYNQKFKGKATLTVDKSSSTAYMELRSLTSEDTAVYYCARGELGHWYFDVWGTGTTVTVSS
VL: DIVLTQSPASLAVSLGQRATISCRASKSVSTSDYSYMHWYQQKPGHPPKLLIYLASNLESGVPARFSGSGSGTDFTLNIHPVEEEDAATYFCQHSRDLPPTFGGGTKLEIK
notes: also called A16
B4: BSN-2E1 (antibody, V domains shown)
VH: B3 VH with E1Q, Q6E, I34M, N54H, Y55N, T58P, L59I, K65T
VL: NIVMTQSPKSMSMSVGERVTLTCKASENVVTYVSWYQQKPEQSPKLLIYGASNRYTGVPDRFTGSGSATDFTLTISSVQAEDLADYHCGQGYSYPYTFGGGTKLEIK
B5: BSN-2G6 (antibody, V domains shown)
VH: QVQLQESGPELVKPGASVKIPCKASGYTFTDYNMDWVKQSHGKSLEWIGNINPDNGGTIYNQKFKGKATLTVDKSSSTAYMELRSLTSEDTAVYFCAREGPYGYTWFAYWGQGTLDTVSA
VL: DILLTQSPAILSVSPGERVSFSCRASQSIGTSIHWYQQRTNGSPRLLIKYASESISGIPSRFSGSGSGTDFTLSINSVESEDIADYYCQQSNSWPLTFGAGTKLELK
B6: BSN-1H2 (antibody, IgG1, V domains shown)
VH: QAQLQQSGAELARPGASVKLSCKASGYTFTSYGITWVKQRTGQGLEWIGDIYPRSGNIYYNENFKGEATLTADKSSSTAYMQLSRLTSEDSAVYFCARSGWEGWFAYWGQGTLVTVSV
VL: DIVMTQSHKFMSTSVGDRVNITCKASQDVGSAVVWYQQKPGQSPKVLIYWASTRHTGVPDRFTGSGSGTDFTLTISNVQSEDLADYFCQQYSSYRTFGGGTKLEIK
notes: also called A1
B7: BSN-5B8 (antibody, V domains shown)
VH: QVQLQQSGAELARPGTSVKLSCKASGYTFTSYGISWVKQRTGQGLEWIGEIYPRSSNTYYNEKFKGKATLTADKSSSTAYMELRSLTSEDSADYFCARANWVGYFDVWGTGTTVTVSS
VL: B6 VL with N20T, S31T, V34A, V46L, H55L, D70Y, S76N
B8: 01T (antibody, IgG1, V domains shown)
VH: B2 VH
VL: QSALTQPRSVSGSPGQSVTISCTGTSSDVGAYNYVSWYQQHPGKAPKLMIYDVSERPSGVPDRFSGSKSGNTASLTISGLQAEDEADYYCTSYAGSYTWVFGGGTKLTVLG
notes: C91T variant of the YU100-H01 VL
B9: 01Q (antibody, IgG1, V domains shown)
VH: B2 VH
VL: B8 VL with T91Q
notes: C91Q variant of the YU100-H01 VL
B10: 01L (antibody, IgG1, V domains shown)
VH: B2 VH
VL: B8 VL with T91L
notes: C91L variant of the YU100-H01 VL
B11: 01S (antibody, IgG1, V domains shown)
VH: B2 VH
VL: B8 VL with T91S
notes: C91S variant of the YU100-H01 VL
B12: 01V (antibody, IgG1, V domains shown)
VH: B2 VH
VL: B8 VL with T91V
notes: C91V variant of the YU100-H01 VL
B13: 01G (antibody, IgG1, V domains shown)
VH: B2 VH
VL: B8 VL with T91G
notes: C91G variant of the YU100-H01 VL
B14: 01I (antibody, IgG1, V domains shown)
VH: B2 VH
VL: B8 VL with T91I
notes: C91I variant of the YU100-H01 VL
B15: 01A (antibody, IgG1, V domains shown)
VH: B2 VH
VL: B8 VL with T91A
notes: C91A variant of the YU100-H01 VL
B16: 02V (antibody, IgG1, V domains shown)
VH: B1 VH
VL: B1 VL with C91V
notes: C91V variant of the YU100-G08 VL
B17: 02T (antibody, IgG1, V domains shown)
VH: B1 VH
VL: B1 VL with C91T
notes: C91T variant of the YU100-G08 VL
B18: YU100-G08_02A (antibody, V domains shown)
VH: B1 VH
VL: B1 VL with C91A
notes: C91A variant of the YU100-G08 VL

Numbering of substitutions follows the chain as printed.

One assay deals with T1, Human IL-11. Put plainly: ELISA on coated recombinant human IL-11 (100 ng/well), scFv-Fc. The procedure:
The light chain shuffled anti-IL-11 antibodies were analysed to determine the EC50 for binding to human IL-11 by ELISA according to standard methods. Briefly, wells of microtiter plates were coated with recombinant human IL-11 (100 ng/well), scFv-Fc comprising the VH and VL domains of the clones were added in a dilution series and antibody binding was detected using a polyclonal antibody detection system.
Regarding B1, the EC50 was determined as 0.028 µg/mL.

As to B2, the concentration for a half-maximal effect (EC50) was found to be 0.053 µg/mL.

The target in another assay is T2, FLAG-tagged human IL-11 expressed at …. Description: flow cytometry, hybridoma supernatant on cells transfected with pB1-IL11-hum.FL; relative to the anti-FLAG positive control (100%).
For B3, the “binding relative to anti-FLAG positive control” value turned out to be 190%.

As for B4, the “binding relative to anti-FLAG positive control” value amounted to 164%.

Turning to B5, the “binding relative to anti-FLAG positive control” value stood at 23%.

In the case of B6, the “binding relative to anti-FLAG positive control” value is 157%.

Regarding B7, the “binding relative to anti-FLAG positive control” value was found to be 188%.

Another assay concerns the target T1, Human IL-11. Put plainly: SPR, Single Cycle Kinetics, BIAcore T200; human IL-11 immobilised on CM5 chip, antibody in IgG1 format as analyte, 1:1 model.
B2 showed a Kd of 42.3 nM, a koff of 0.000658 s⁻¹ and a kon of 14800 M⁻¹ s⁻¹.

Molecule B8 registered a Kd of 17.1 nM, an off-rate (koff) of 0.0127 s⁻¹ and an on-rate constant (kon) of 742000 M⁻¹ s⁻¹.

B9 gave a Kd of 104 nM, a koff of 0.000966 s⁻¹ and an on-rate (kon) of 9290 M⁻¹ s⁻¹.

Regarding B10, the dissociation constant Kd is 33.5 nM, the koff came to 0.000526 s⁻¹ and the on-rate constant (kon) is 15700 M⁻¹ s⁻¹.

Consider B11, for which the Kd worked out at 107 nM, the dissociation rate constant (koff) came to 0.000905 s⁻¹ and the kon worked out at 8470 M⁻¹ s⁻¹.

Turning to B12, the Kd is 84.7 nM, the off-rate constant (koff) is 0.000778 s⁻¹ and the kon worked out at 9190 M⁻¹ s⁻¹.

Take B13: the equilibrium dissociation constant (Kd) was 560 nM, the off-rate constant (koff) was found to be 0.000986 s⁻¹ and the kon is 1760 M⁻¹ s⁻¹.

B14 showed a Kd of 29.2 nM, a koff of 0.00269 s⁻¹ and a kon of 92100 M⁻¹ s⁻¹.

In the case of B15, the dissociation constant Kd came out at 62.6 nM, the koff is 0.00081 s⁻¹ and the kon was determined as 12900 M⁻¹ s⁻¹.

A further assay concerns the target T1, Human IL-11. Description: ELISA. The procedure: (§1) The soluble scFv were produced by recombinant expression in E. coli, and analysed for their ability to bind to human IL-11 and murine IL-11 by ELISA. Briefly, the respective antigen was coated to wells of an ELISA plate, the cell culture supernatant containing the respective scFv was added at a 1:2 dilution, and binding was detected.
B1: the “hIL11 - average signal” value was determined as 0.153.

For the molecule B2, the “hIL11 - average signal” value was found to be 0.43.

For a further assay, the target named is T3, Mouse IL-11. Put plainly: ELISA. The procedure: as §1
As for B1, the “mIL11 - average signal” value came out at 0.27.

In the case of B2, the “mIL11 - average signal” value stood at 0.283.

The target in the next assay is T1, Human IL-11. Put plainly: cell-based or functional assay.
For the molecule B1, the “MMP2 production, Experiment 1 (human atrial fibroblasts + TGFB1)” value amounted to 42.3 ng/mL and the “MMP2 production, Experiment 2 (human atrial fibroblasts + TGFB1)” value came to 38 ng/mL.

B2: the “MMP2 production, Experiment 1 (human atrial fibroblasts + TGFB1)” value was found to be 48.3 ng/mL and the “MMP2 production, Experiment 2 (human atrial fibroblasts + TGFB1)” value was 42.2 ng/mL.

The target of another assay is T1, Human IL-11. Description: SPR (BIAcore T200) single cycle kinetics, human IL-11 on CM5 chip, 1:1 model. From the text:
HEK293 EBNDA cells were transfected with vectors encoding scFv corresponding to YU100-H01, 01A, 01G, 01I, 01L, 01Q, 01S, 01T, 01V, YU100-G08, 02A, 02G, 02I, 02L, 02Q, 02S, 02T or 02V.
Molecule B1 displayed a dissociation constant Kd of 3.51 nM, a koff of 0.0013 s⁻¹ and a kon of 369000 M⁻¹ s⁻¹.

In turn, B16 came in with a Kd of 10.4 nM, a koff of 0.00215 s⁻¹ and an on-rate constant (kon) of 207000 M⁻¹ s⁻¹.

For the molecule B17, the Kd is 35 nM, the dissociation rate constant (koff) turned out to be 0.00207 s⁻¹ and the kon turned out to be 59200 M⁻¹ s⁻¹.

B18 gave a Kd of 4.46 nM, a koff of 0.00312 s⁻¹ and a kon of 699000 M⁻¹ s⁻¹.

The target in another assay is T2, FLAG-tagged human IL-11 expressed at …. Description: flow cytometry, hybridoma supernatant on cells transfected with pB1-IL11-hum.FL.
Molecule B3 registered a GMFI of 239000.

Regarding B4, the GMFI came to 206000.

As to B5, the GMFI was determined as 28600.

On to B6, for which the GMFI was determined as 197000.

For the molecule B7, the GMFI worked out at 236000.
